T1: Myo5 SH3 (MYO5_YEAST), Q04439
T1 chain: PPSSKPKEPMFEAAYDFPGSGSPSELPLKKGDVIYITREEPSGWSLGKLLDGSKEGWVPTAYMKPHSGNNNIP

T2: Yfr024 SH3 (LSB3_YEAST), P43603
T2 chain: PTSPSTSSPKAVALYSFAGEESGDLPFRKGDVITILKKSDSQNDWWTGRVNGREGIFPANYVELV

T3: Rvs167 SH3 (RV167_YEAST), P39743
T3 chain: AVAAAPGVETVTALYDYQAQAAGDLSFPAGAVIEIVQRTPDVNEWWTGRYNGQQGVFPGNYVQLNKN

T4: Boi1 SH3 (BOI1_YEAST), P38041
T4 chain: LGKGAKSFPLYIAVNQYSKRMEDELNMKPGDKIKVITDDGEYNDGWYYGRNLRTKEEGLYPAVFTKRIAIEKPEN

T5: Boi2 SH3 (BOI2_YEAST), P39969
T5 chain: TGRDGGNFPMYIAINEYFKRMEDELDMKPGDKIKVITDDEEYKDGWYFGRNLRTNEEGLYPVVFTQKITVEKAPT

T6: Yhr016c SH3 (YSC84_YEAST), P32793
T6 chain: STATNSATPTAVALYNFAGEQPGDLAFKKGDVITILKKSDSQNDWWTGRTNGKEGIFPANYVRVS

T7: Abp1 SH3 (ABP1_YEAST), P15891
T7 chain: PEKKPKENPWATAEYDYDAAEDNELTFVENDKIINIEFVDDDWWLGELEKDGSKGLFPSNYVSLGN

B1: 326-339 " involved in silencing at telomeres, HML, and HMR" (peptide)
chain: NKVPTNPKKFKKAP
B2: 537-550 Hypothetical ORF (peptide)
chain: PIMPTLPPRPYITI
B3: YDR448W 142-155 (peptide)
chain: RERPLEPPRKPMAS
B4: YJR064W 268-281 (peptide)
chain: KLAILTSPFEPPKP
B5: 93-106 Ribosomal protein L7A (L6A) (rp11) (YL8) (peptide)
chain: NKIPPKPRKVLQLL
B6: 634-647 Hypothetical ORF (peptide)
chain: NVQPRKPSRVHSRN
B7: 87-100 35 kDa mitochondrial ribosomal small subunit protein (peptide)
chain: PLQPRPPVKPLSKQ
B8: 189-202 Product of gene unknown (peptide)
chain: NMVPLNPNRIIPDE
B9: 22-35 Hypothetical ORF (peptide)
chain: NSPPVYPKRIRHFE
B10: 548-561 " Non-membrane-embedded, PEST sequence-containing protein" (peptide)
chain: NLKPERPSKVSFEM
B11: YOR290C 25-38 (peptide)
chain: NEHGMNAPSVPEFI
B12: 535-548 serine/threonine protein kinase (peptide)
chain: PLPPIPPTKSKTSP
B13: YJL115W 157-170 (peptide)
chain: NEGDLYPPEQPGVD
B14: 782-795 Hypothetical ORF (peptide)
chain: NIQPNIPLRSYRYL
B15: YNL223W 328-341 (peptide)
chain: NEFLHFDPHIPQPA
B16: 90-103 Hypothetical ORF (peptide)
chain: NIQPDLPPRKIMIP
B17: 1337-1350 transcriptional regulator (peptide)
chain: PNSPTPPLKSKVSR
B18: 943-956 negative regulator of early meiotic gene expression (peptide)
chain: PPVPKAPSRRSSSL
B19: 310-323 " meiosis-specific protein related to RecA and Rad51p. Dmc1p colocalizes with Rad51p to discrete subnuclear sites in nuc (peptide)
chain: QDSPDMPEKESVYV
B20: YDL223C 906-919 (peptide)
chain: NFPSLIDPHVPTYG
B21: YHR117W 470-483 (peptide)
chain: NETKLKFPTLPEVP
B22: 302-315 contains 9 or 10 putative membrane spanning regions; putative Ca2+ binding protein (homology to EF-hand Ca2+ binding sit (peptide)
chain: PFIPKFPSRESVES
B23: 477-490 Hypothetical ORF (peptide)
chain: PPPPPPPSRKSGTP
B24: YDL033C 241-254 (peptide)
chain: NFLKHYLPSSPGDI
B25: YNL204C 272-285 (peptide)
chain: NEKLHETPHLPSPV
B26: 173-186 Hypothetical ORF (peptide)
chain: NSLPSSPKKQPARN
B27: 76-89 Hypothetical ORF (peptide)
chain: NVDPASPWRHELLS
B28: YDL140C 235-248 (peptide)
chain: ILTSLPVPPPPVRP
B29: YNL045W 490-503 (peptide)
chain: WETWLYKPGMPPRP
B30: 160-173 subunit of the chromatin remodeling Snf/Swi complex (peptide)
chain: QEKPLTPLKYTKLI
B31: 27-40 Hypothetical ORF (peptide)
chain: PKDPSSPQRDEILT
B32: 44-57 telomere binding protein (peptide)
chain: PVYPSLPERSKVIL
B33: 35-48 succinate dehydrogenase membrane anchor subunit (peptide)
chain: PFLPVLPQKPGGVR
B34: 198-211 Hypothetical ORF (peptide)
chain: NNNPVPPQKINQPP
B35: YKL216W 127-140 (peptide)
chain: TELNLSSPNVPGKP
B36: 61-74 Hypothetical ORF (peptide)
chain: NLDPNPPVRGENLT
B37: 345-358 negative regulator of early meiotic genes (peptide)
chain: PSNPALPKKLLNVP
B38: YCL055W 320-333 (peptide)
chain: NEIELLRPRSPVQK
B39: 169-182 origin recognition complex subunit 2 (peptide)
chain: PPEPATPSKKSLTT
B40: 141-154 glucosidase I (peptide)
chain: QGEPLDPKRPSTAS
B41: 311-324 Hypothetical ORF (peptide)
chain: PLIPDNPGRLLSSK
B42: 239-252 Hypothetical ORF (peptide)
chain: NYIPPDPPKDIQLN
B43: 285-298 ubiquitin carboxyl-terminal hydrolase (peptide)
chain: PNEPGAPSRLSFEN
B44: YDL068W 45-58 (peptide)
chain: LVGMRSFPLYPSGL
B45: 874-887 Hypothetical ORF (peptide)
chain: PVGPKVPAKEPSPK
B46: 66-79 Similar to ubiquitin conjugating protein family (peptide)
chain: PNYPDSPPKVTFIS

Legend:
Experiment in all cases: SPOT array
[1] = target: Sho1 SH3 (SHO1_YEAST), P40073
Sho1 SH3 (SHO1_YEAST), P40073, sequence (P40073 295-366): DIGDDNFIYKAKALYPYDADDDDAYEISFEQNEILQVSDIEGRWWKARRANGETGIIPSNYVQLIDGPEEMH

[2] = target: T1, Myo5 SH3 (MYO5_YEAST), Q04439
[3] = target: T2, Yfr024 SH3 (LSB3_YEAST), P43603
[4] = target: T3, Rvs167 SH3 (RV167_YEAST), P39743
[5] = target: T4, Boi1 SH3 (BOI1_YEAST), P38041
[6] = target: T5, Boi2 SH3 (BOI2_YEAST), P39969
[7] = target: T6, Yhr016c SH3 (YSC84_YEAST), P32793
[8] = target: T7, Abp1 SH3 (ABP1_YEAST), P15891

Row | Binder | normalised SPOT signal, Boehringer light units (BLU); mean over the file's lines of this peptide [1] | normalised SPOT signal, Boehringer light units (BLU); mean over the file's lines of this peptide [2] | further results
1 | B1 | 291 |  | 
2 | B2 | 228 |  | 
3 | B3 |  | 967 | normalised SPOT signal, Boehringer light units (BLU); mean over the file's lines of this peptide [3]: 13500; normalised SPOT signal, Boehringer light units (BLU); mean over the file's lines of this peptide [4]: 599; normalised SPOT signal, Boehringer light units (BLU); mean over the file's lines of this peptide [5]: 256; normalised SPOT signal, Boehringer light units (BLU); mean over the file's lines of this peptide [6]: 41.1; normalised SPOT signal, Boehringer light units (BLU); mean over the file's lines of this peptide [7]: 1830
4 | B4 |  | 173 | normalised SPOT signal, Boehringer light units (BLU); mean over the file's lines of this peptide [8]: 40.4
5 | B5 | 152 |  | 
6 | B6 | 82.5 |  | 
7 | B7 | 85.4 |  | 
8 | B8 | 130 |  | 
9 | B9 | 177 |  | 
10 | B10 | 339 |  | 
11 | B11 |  | 344 | 
12 | B12 | 900 |  | 
13 | B13 |  | 80.1 | 
14 | B14 | 117 |  | 
15 | B15 |  | 156 | 
16 | B16 | 197 |  | 
17 | B17 | 144 |  | 
18 | B18 | 144 |  | 
19 | B19 | 118 |  | 
20 | B20 |  | 97.4 | 
21 | B21 |  | 255 | 
22 | B22 | 163 |  | 
23 | B23 | 261 |  | 

Row | Binder | normalised SPOT signal, Boehringer light units (BLU); mean over the file's lines of this peptide [1] | normalised SPOT signal, Boehringer light units (BLU); mean over the file's lines of this peptide [2] | further results
24 | B24 |  | 172 | 
25 | B25 |  | 109 | 
26 | B26 | 198 |  | 
27 | B27 | 102 |  | 
28 | B28 |  | 617 | normalised SPOT signal, Boehringer light units (BLU); mean over the file's lines of this peptide [8]: 208
29 | B29 |  | 255 | normalised SPOT signal, Boehringer light units (BLU); mean over the file's lines of this peptide [8]: 310
30 | B30 | 143 |  | 
31 | B31 | 130 |  | 
32 | B32 | 210 |  | 
33 | B33 | 1380 |  | 
34 | B34 | 190 |  | 
35 | B35 |  | 228 | normalised SPOT signal, Boehringer light units (BLU); mean over the file's lines of this peptide [8]: 166
36 | B36 | 206 |  | 
37 | B37 | 178 |  | 
38 | B38 |  | 126 | 
39 | B39 | 46 |  | 
40 | B40 | 124 |  | 
41 | B41 | 83.2 |  | 
42 | B42 | 38.1 |  | 
43 | B43 | 85.1 |  | 
44 | B44 |  | 386 | normalised SPOT signal, Boehringer light units (BLU); mean over the file's lines of this peptide [3]: 1940; normalised SPOT signal, Boehringer light units (BLU); mean over the file's lines of this peptide [4]: 387; normalised SPOT signal, Boehringer light units (BLU); mean over the file's lines of this peptide [5]: 512; normalised SPOT signal, Boehringer light units (BLU); mean over the file's lines of this peptide [6]: 325; normalised SPOT signal, Boehringer light units (BLU); mean over the file's lines of this peptide [7]: 330
45 | B45 | 5820 |  | 
46 | B46 | 187 |  | 
